Like-named read-outs stand apart in the source and are kept apart here.
B1: Rhizobium etli pyruvate carboxylase, wild type (enzyme)
chain: PISKILVANRSEIAIRVFRAANELGIKTVAIWAEEDKLALHRFKADESYQVGRGPHLARDLGPIESYLSIDEVIRVAKLSGADAIHPGYGLLSESPEFVDACNKAGIIFIGPKADTMRQLGNKVAARNLAISVGVPVVPATEPLPDDMAEVAKMAAAIGYPVMLKASWGGGGRGMRVIRSEADLAKEVTEAKREAMAAFGKDEVYLEKLVERARHVESQILGDTHGNVVHLFERDCSVQRRNQKVVERAPAPYLSEAQRQELAAYSLKIAGATNYIGAGTVEYLMDADTGKFYFIEVNPRIQVEHTVTEVVTGIDIVKAQIHILDGAAIGTPQSGVPNQEDIRLNGHALQCRVTTEDPEHNFIPDYGRITAYRSASGFGIRLDGGTSYSGAIITRYYDPLLVKVTAWAPNPLEAISRMDRALREFRIRGVATNLTFLEAIIGHPKFRDNSYTTRFIDTTPELFQQVKRQDRATKLLTYLADVTVNGHPEAKDRPKPLENAARPVVPYANGNGVKDGTKQLLDTLGPKKFGEWMRNEKRVLLTDTTMRDGHQSLLATRMRTYDIARIAGTYSHALPNLLSLECWGGATFDVSMRFLTEDPWERLALIREGAPNLLLQMLLRGANGVGYTNYPDNVVKYFVRQAAKGGIDLFRVFDCLNWVENMRVSMDAIAEENKLCEAAICYTGDILNSARPKYDLKYYTNLAVELEKAGAHIIAVKDMAGLLKPAAAKVLFKALREATGLPIHFHTHDTSGIAAATVLAAVEAGVDAVDAAMDALSGNTSQPCLGSIVEALSGSERDPGLDPAWIRRISFYWEAVRNQYAAFESDLKGPASEVYLHEMPGGQFTNLKEQARSLGLETRWHQVAQAYADANQMFGDIVKVTPSSKVVGDMALMMVSQDLTVADVVSPDREVSFPESVVSMLKGDLGQPPSGWPEALQKKALKGEKPYTVRPGSLLKEADLDAERKVIEKKLEREVSDFEFASYLMYPKVFTDFALASDTYGPVSVLPTPAYFYGLADGEELFADIEKGKTLVIVNQAVSATDSQGMVTVFFELNGQPRRIKVPDRAHGATGAAVRRKAEPGNAAHVGAPMPGVISRVFVSSGQAVNAGDVLVSIEAMKMETAIHAEKDGTIAEVLVKAGDQIDAKDLLAVYGG
modifications: biotin prosthetic group (enzymic biotin; residue not given)
B2: Rhizobium etli pyruvate carboxylase, H216N mutant (enzyme)
chain: PISKILVANRSEIAIRVFRAANELGIKTVAIWAEEDKLALHRFKADESYQVGRGPHLARDLGPIESYLSIDEVIRVAKLSGADAIHPGYGLLSESPEFVDACNKAGIIFIGPKADTMRQLGNKVAARNLAISVGVPVVPATEPLPDDMAEVAKMAAAIGYPVMLKASWGGGGRGMRVIRSEADLAKEVTEAKREAMAAFGKDEVYLEKLVERARNVESQILGDTHGNVVHLFERDCSVQRRNQKVVERAPAPYLSEAQRQELAAYSLKIAGATNYIGAGTVEYLMDADTGKFYFIEVNPRIQVEHTVTEVVTGIDIVKAQIHILDGAAIGTPQSGVPNQEDIRLNGHALQCRVTTEDPEHNFIPDYGRITAYRSASGFGIRLDGGTSYSGAIITRYYDPLLVKVTAWAPNPLEAISRMDRALREFRIRGVATNLTFLEAIIGHPKFRDNSYTTRFIDTTPELFQQVKRQDRATKLLTYLADVTVNGHPEAKDRPKPLENAARPVVPYANGNGVKDGTKQLLDTLGPKKFGEWMRNEKRVLLTDTTMRDGHQSLLATRMRTYDIARIAGTYSHALPNLLSLECWGGATFDVSMRFLTEDPWERLALIREGAPNLLLQMLLRGANGVGYTNYPDNVVKYFVRQAAKGGIDLFRVFDCLNWVENMRVSMDAIAEENKLCEAAICYTGDILNSARPKYDLKYYTNLAVELEKAGAHIIAVKDMAGLLKPAAAKVLFKALREATGLPIHFHTHDTSGIAAATVLAAVEAGVDAVDAAMDALSGNTSQPCLGSIVEALSGSERDPGLDPAWIRRISFYWEAVRNQYAAFESDLKGPASEVYLHEMPGGQFTNLKEQARSLGLETRWHQVAQAYADANQMFGDIVKVTPSSKVVGDMALMMVSQDLTVADVVSPDREVSFPESVVSMLKGDLGQPPSGWPEALQKKALKGEKPYTVRPGSLLKEADLDAERKVIEKKLEREVSDFEFASYLMYPKVFTDFALASDTYGPVSVLPTPAYFYGLADGEELFADIEKGKTLVIVNQAVSATDSQGMVTVFFELNGQPRRIKVPDRAHGATGAAVRRKAEPGNAAHVGAPMPGVISRVFVSSGQAVNAGDVLVSIEAMKMETAIHAEKDGTIAEVLVKAGDQIDAKDLLAVYGG
modifications: biotin prosthetic group (enzymic biotin; residue not given)

Legend:
AUC [1] = target: the molecule itself; experiment: AUC
AUC [2] = target: the molecule itself; experiment: AUC; remark: listed apart in the source

Protein | stoichiometry N (AUC [1]) | stoichiometry N (AUC [2])
B1 | 4 | 4
B2 | 4 | 4
